In US20200165335A1 (Seagen, published 2020):
Values joined by “and” are separate entries in the source; they are usually repeats but may differ in a detail not shown here. Identical values can stand only once.

T1: human LIV-1 (human, UniProt Q13433 29-755)
T1 construct: also called hLIV-1; Q13433
T1 sequence: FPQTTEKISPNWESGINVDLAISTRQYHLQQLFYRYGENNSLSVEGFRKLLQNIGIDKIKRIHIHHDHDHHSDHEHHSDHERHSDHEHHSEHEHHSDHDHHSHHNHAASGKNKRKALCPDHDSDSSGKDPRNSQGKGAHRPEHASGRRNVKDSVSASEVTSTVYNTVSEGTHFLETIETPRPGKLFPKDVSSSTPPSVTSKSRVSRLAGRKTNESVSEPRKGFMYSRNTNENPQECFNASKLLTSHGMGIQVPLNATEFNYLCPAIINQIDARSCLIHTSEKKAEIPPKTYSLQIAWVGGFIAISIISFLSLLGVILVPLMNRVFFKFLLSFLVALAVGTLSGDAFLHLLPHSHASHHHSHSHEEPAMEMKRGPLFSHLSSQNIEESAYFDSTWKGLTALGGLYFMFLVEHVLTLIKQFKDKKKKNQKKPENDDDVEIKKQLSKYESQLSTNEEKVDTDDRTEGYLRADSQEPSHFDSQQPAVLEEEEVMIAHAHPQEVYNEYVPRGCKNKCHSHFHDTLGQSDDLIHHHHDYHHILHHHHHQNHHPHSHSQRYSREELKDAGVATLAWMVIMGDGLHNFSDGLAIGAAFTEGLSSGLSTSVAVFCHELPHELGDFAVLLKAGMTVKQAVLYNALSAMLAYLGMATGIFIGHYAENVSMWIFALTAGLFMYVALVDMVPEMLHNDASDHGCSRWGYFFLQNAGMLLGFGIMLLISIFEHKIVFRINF

T2: human LIV-1 (UniProt Q13433 29-755)
T2 chain: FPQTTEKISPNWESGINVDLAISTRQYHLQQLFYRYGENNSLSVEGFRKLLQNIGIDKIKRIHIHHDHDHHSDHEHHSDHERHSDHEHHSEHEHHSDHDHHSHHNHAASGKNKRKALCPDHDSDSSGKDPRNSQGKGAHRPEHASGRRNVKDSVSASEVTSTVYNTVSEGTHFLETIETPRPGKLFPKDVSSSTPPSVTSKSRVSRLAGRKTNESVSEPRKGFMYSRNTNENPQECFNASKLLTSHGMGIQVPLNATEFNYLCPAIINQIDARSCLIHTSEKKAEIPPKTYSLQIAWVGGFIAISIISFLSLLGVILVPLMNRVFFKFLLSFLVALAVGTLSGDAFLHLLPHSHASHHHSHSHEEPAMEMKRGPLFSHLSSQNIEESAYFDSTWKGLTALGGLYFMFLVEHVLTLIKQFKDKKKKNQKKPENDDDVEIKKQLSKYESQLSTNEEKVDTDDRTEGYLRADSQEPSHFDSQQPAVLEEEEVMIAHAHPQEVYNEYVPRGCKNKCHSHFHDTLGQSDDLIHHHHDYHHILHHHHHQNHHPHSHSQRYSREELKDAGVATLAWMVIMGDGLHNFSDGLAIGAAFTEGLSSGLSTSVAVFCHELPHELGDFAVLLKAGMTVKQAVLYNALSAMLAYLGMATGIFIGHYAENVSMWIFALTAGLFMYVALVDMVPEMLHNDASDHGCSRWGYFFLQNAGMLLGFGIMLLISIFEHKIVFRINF

T3: cynomolgus monkey LIV-1 (cynomolgus monkey, UniProt Q5R9M9 28-743 (Pongo abelii entry))
T3 construct: Recombinant on transfected CHO cells; also called cyno LIV-1; cyLIV-1
T3 chain: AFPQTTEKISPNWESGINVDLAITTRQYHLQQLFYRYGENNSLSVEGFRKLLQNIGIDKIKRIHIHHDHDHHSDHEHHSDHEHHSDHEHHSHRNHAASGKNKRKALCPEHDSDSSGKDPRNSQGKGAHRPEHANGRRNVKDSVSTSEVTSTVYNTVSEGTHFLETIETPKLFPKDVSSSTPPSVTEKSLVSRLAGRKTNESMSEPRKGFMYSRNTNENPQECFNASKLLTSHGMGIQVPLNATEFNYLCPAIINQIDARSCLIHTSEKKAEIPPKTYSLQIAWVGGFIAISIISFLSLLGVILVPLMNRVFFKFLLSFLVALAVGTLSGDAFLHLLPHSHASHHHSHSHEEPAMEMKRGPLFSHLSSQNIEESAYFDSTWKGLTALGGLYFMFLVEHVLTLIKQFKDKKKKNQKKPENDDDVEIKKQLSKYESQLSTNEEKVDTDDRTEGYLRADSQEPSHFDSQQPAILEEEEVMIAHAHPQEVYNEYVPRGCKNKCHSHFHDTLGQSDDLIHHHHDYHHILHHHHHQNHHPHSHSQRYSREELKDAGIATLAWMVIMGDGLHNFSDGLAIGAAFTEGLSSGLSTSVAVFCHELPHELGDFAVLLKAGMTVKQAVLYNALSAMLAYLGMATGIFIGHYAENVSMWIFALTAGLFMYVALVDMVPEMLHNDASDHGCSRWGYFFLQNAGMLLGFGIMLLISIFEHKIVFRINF


Experiments:
[1] = molecular target: T1, human LIV-1; assay: saturation binding, flow cytometry, MCF7 cells
Method: (§1) 1×10⁵ antigen expressing cells (either MCF7 cells (ATCC) expressing human LIV-1, a transfected CHO cell line expressing human LIV-1 or a transfected CHO cell line expressing cyno LIV-1) were aliquoted per well of a 96-well v-bottom plates. […] Cells were pelleted and washed 3× with PBS/BSA. The cells were then pelleted and resuspended in 125 μL of PBS/BSA. Fluorescence was analyzed by flow cytometry, using percent of saturated fluorescent signal to determine percent bound and to subsequently calculate apparent Kd.

[2] = molecular target: T2, human LIV-1; assay: competition binding on CHO hLIV1 cells
[3] = molecular target: T1, human LIV-1; assay: saturation binding, flow cytometry, comparison of the cell lines of Table 1
Method: as §1

[4] = molecular target: T1, human LIV-1; assay: saturation binding of AF647-labelled antibody, flow cytometry, CHO (hLIV-1) cells
Method: as §1

[5] = molecular target: T1, human LIV-1; assay: saturation binding of AF647-labelled antibody, flow cytometry, 293F (hLIV-1) cells
[6] = molecular target: T3, cynomolgus monkey LIV-1; assay: saturation binding of AF647-labelled antibody, flow cytometry, CHO (cyLIV-1) cells
Method: as §1

[7] = molecular target: T2, human LIV-1; assay: saturation binding, flow cytometry on MCF7 cells; AF-labeled
[8] = molecular target: T1, human LIV-1; assay: saturation binding of AF647-labelled antibody, flow cytometry, MCF-7 (ATCC) cells, endogenous hLIV-1
Method: as §1

[9] = molecular target: T2, human LIV-1; assay: competition binding
[10] = molecular target: T2, human LIV-1; assay: saturation binding on CHO cells; apparent Kd
[11] = molecular target: T1, human LIV-1; assay: saturation binding of AF647-labelled antibody, flow cytometry, CHO hLIV-1 cells
Method: as §1, with “cells” for “cells (ATCC)”, “LIV-1, 293F cells,” for “LIV-1,”, “cytometery,” for “cytometry,”
(§2) The KD for the murine Liv1 of BR2-22a (Table 5) was determined for human LIV-1 expressed as an endogenous protein in a human breast cancer cell line, in 293F cells or as a recombinant protein in a CHO cell line. The KD for BR2-22a was also determined for cyno LIV-1 expressed as a recombinant protein in a CHO cell line.

[12] = molecular target: T3, cynomolgus monkey LIV-1; assay: saturation binding of AF647-labelled antibody, flow cytometry, CHO cyLIV-1 cells
Method: as §1, with “cells” for “cells (ATCC)”, “LIV-1, 293F cells,” for “LIV-1,”, “cytometery,” for “cytometry,”
as §2

[13] = molecular target: T1, human LIV-1; assay: saturation binding of AF647-labelled antibody, flow cytometry, 293F (hLIV-1) cells; remark: listed apart in the source
Method: as §1, with “cells” for “cells (ATCC)”, “LIV-1, 293F cells,” for “LIV-1,”, “cytometery,” for “cytometry,”
as §2

[14] = molecular target: T1, human LIV-1; assay: saturation binding of AF647-labelled antibody, flow cytometry, MCF7 (ATCC) cells, endogenous hLIV-1
Method: as §1, with “cells” for “cells (ATCC)”, “LIV-1, 293F cells,” for “LIV-1,”, “cytometery,” for “cytometry,”
as §2

| Kd [1] [nM] | EC50 [2] [µg/mL] | fold lower dissociation constant for non-recombinant LIV-1 of a human cell line than for recombinant LIV-1 [3] [fold] | Kd [4] [nM] | Kd [5] [nM] | Kd [6] [nM] | Kd [7] | Kd [8] [nM] | EC50 [9] [µg/mL] | Kd [10] [nM] | Kd [11] [nM] | Kd [12] [nM] | Kd [13] [nM] | Kd [14] [nM] | Binder |
| --- | --- | --- | --- | --- | --- | --- | --- | --- | --- | --- | --- | --- | --- | --- |
| 2.9 | 3.42 | ~5 | 12.5 | 2.7 | 14 | 0.8 µg/mL and 5.8 nM | 2.4 |  |  |  |  |  |  | murine LIV-1 monoclonal antibody BR2-14a (antibody, V domains shown, Mouse monoclonal from hybridoma ATCC PTA-5705A; also called parental murine mAb; murine LIV-1 mAb) VH: QVQLQQSGAELVRSGASVKLSCTASGFNIEDYYMHWVKQRPKQGLEWIGWIDPENGDTEYAPTFQGKATMTADTSSNTAYLQLSSLTSEDTAVYYCNVHDAHYGTWFAYWGQGTLVTVSA VL: DVLMTQTPLSLPVSLGDQASISCRSSQSIIRNDGNTYLEWYLQKPGQSPKLLIYRVSNRFSGVPDRFSGSGSGTDFTLKISRVEAEDLGVYYCFQGSHVPYTFGGGTKLEIKR |
|  |  |  |  |  |  |  |  | 0.3 | 1.2 | 1.5 | 4.2 | 0.5 | 1.1 | mouse monoclonal antibody BR2-22a (antibody, mouse IgG1, V domains shown, also called mAb2; parental BR2-22a) VH: EVQLQQSGAELVRSGASVKLSCTASGLNIEDYYMHWVKQRPEQGLEWIGWIDPENGDTEYGPKFQGKATMTADTSSNTAYLQLSSLTSGDTAVYYCTVHNAHYGTWFAYWGQGTLVTVSA VL: DVLMTQTPLSLPVSLGDQASISCRSSQSLLHSSGNTYLEWYLQRPGQSPKPLIYKISTRFSGVPDRFSGSGSGTDFTLKISRVEAEDLGLYYCFQGSHVPYTFGGGTKLEIKR |
